Source: patent US20120149645A1, “COMPOSITIONS AND MODULATION OF MYOCYTE ENHANCER FACTOR 2 (MEF2)” (EMORY UNIVERSITY, priority 2010, published 2012)

Key:
[1] = test system: ND6; experiment: In organello de novo transcription assay; format: cell-based, mouse; details: mitochondria isolated from SN4741 cells infected with lentivirus for 24 hour
Text: (§1) (A) Mitochondria-targeting MEF2D (Mt2D) and mitochondria-targeting dominant-negative MEF2D (Mt2Ddn), which lacks the transactivation domain (TAD). […] Control indicates the control vector group. (C) Effects of Mt2D or Mt2Ddn on ND6 expression in SN4741 cells. Over-expression of Mt2Ddn in SN4741 cells reduced ND6 but not PPAR-γ coactivator 1 (PGC1) expression by western blotting (n=4, **p<0.01). Control indicates the control vector group. (D) Effects of over-expression of Mt2D or Mt2Ddn on mRNA levels of mitochondria encoded genes. […] Control indicates the control vector group. (E) Effects of Mt2D or Mt2Ddn on mtDNA L-strand transcription initiation in vitro (n=3; **P<0.01). A human mtDNA fragment containing mitochondrial L-strand promoter (LSP) and ND6 gene was used in the in vitro transcription assay. […] (F) Effects of Mt2D or Mt2Ddn on mtDNA de novo transcription in vivo (n=3; **P<0.01). Control (−) is without primers. Control (+) indicates the control vector group.
SN4741 cells were infected with Mt2D or Mt2Ddn lentiviruses for 24 hour. De novo transcription was measured in isolated mitochondria as described previously (46, 47). The mitochondrial fraction was suspended in transcription buffer containing 25 mM sucrose, 75 mM sorbitol, 100 mM KCl, 10 mM K2HPO4, 50 mM EDTA, 5 mM MgCl2, 1 mM ADP, 10 mM glutamate, 2.5 mM malate, and 10 mM Tris-HCl (pH7.4), with 1 mg of BSA per ml. […]

[2] = test system: human mtDNA fragment containing mitochondrial L-strand promoter (LSP) and ND6 gene; experiment: In vitro mtDNA L-strand transcription assay; format: biochemical
Text: as §1

[3] = test system: ND6 mRNA; experiment: Real-time PCR of mitochondria-encoded mRNA levels in SN4741 cells; format: cell-based, mouse; details: construct over-expressed in SN4741 cells
Text: as §1

[4] = test system: TH+ neurons in SNpc; experiment: MPTP mouse model of PD, TH immunohistochemistry in SNpc; details: lentivirus injected into SNpc of mouse brain, then MPTP
Description: (B) Role of mitochondrial MEF2D-ND6 pathway in maintaining TH+ neurons in SNpc in a MPTP mouse model of PD. For each group, three mice received stereotactical injection of control vector (GFP) or Mt2Ddn lentivirus in SN. Two weeks later, mice were exposed to MPTP. After treatment for seven days, the survival of lentivirus-transduced TH+ neurons in SN was determined by immunohistochemistry (left panel). Quantitative analysis of nine mice from three independent experiments was shown at the bottom panel (scale bar, 30 μm; **P<0.01).

[5] = test system: SN4741 cells; experiment: PI (propidium iodide) staining of cell death; format: cell-based, mouse; details: SN4741 cells infected with lentivirus 24 hours, then MPP+ 5 μM for 24 hours
Description: (A) SN4741 cells were infected with lentiviruses for 24 hours and followed by exposure to MPP+ (5 μM) for 24 hours. Cell death was analyzed by PI (propidium iodide) staining (n=4; scale bar, 30 μm). The control indicated the control vector. (B) Quantification of the number of PI positive cells in (A) (n=50 cells, **P<0.01). Experiments were repeated four times. Control indicates the group transfected with the control vector.

[6] = test system: SN4741 cells; experiment: Subcellular localization of over-expressed MEF2D constructs; format: cell-based, mouse; details: over-expressed in SN4741 cells
Text: (A) Lack of mitochondrial localization by ΔN30MEF2D. […] VDAC, PARP and c-Raf are Mt, Nu and Cy markers, respectively. Control indicates the control vector group. (B) Immunocytochemistry analysis of mitochondrial localization of transfected Flag-MEF2D. […] Experiments were repeated four times. (C, D) Requirement of mtHsp70 for mitochondria-targeting of MEF2D (n=4; **p<0.01). Control indicates untreated. […]. Knocking down mouse mtHsp70 by siRNA reduced MEF2D level in purified mitochondria from SN4741 cells (C). […] MnSOD is a known mtHsp70-imported mitochondrial matrix protein.
(A) Diagrams of Mt2DVP16 and MtND6. Mt2DVP16 was constructed by fusion of transactivation domain (TAD) of VP16 with DNA-binding domain of MEF2D and a mitochondria-targeting sequence (Mito). […] (C) Over-expression of Mt2DVP16 attenuated MEF2D siRNA-induced reduction of ND6 expression (n=3, **P<0.01).
Control indicates the group co-tranfected with control vector.
SN4741 cells or primary midbrain DA neurons were plated on glass slides in 24-well plates. Localizations of endogenous and exogenous MEF2D were visualized on a Zeiss LSM5 PASCAL confocal microscope. […] Quantification of colocalization of signals was done using “Colocalization Analysis” program of software Image Pro (Media Cybernetics). […]

B1: Mt2Ddn: Mitochondria-targeting dominant-negative MEF2D: mouse MEF2D 1-131aa with mitochondria-targeting signal, lacks the transactivation domain (protein, UniProt Q63943 1-131, looked up, fragment)
chain: MGRKKIQIQRITDERNRQVTFTKRKFGLMKKAYELSVLCDCEIALIIFNHSNKLFQYASTDMDKVLLKYTEYNEPHESRTNADIIETLRKKGFNGCDSPEPDGEDSLEQSPLLEDKYRRASEELDGLFRRY
modifications: mitochondria-targeting signal added
- de novo transcription of ND6 [1]: reduced
- level of L-strand promoter (LSP) transcripts [2]: reduces
- ND6 mRNA level [3]: clearly reduced
- mRNA levels of other mitochondria-encoded proteins [3]: little effect
- loss of TH signal in DA neurons in vivo [4]: significantly accelerates
- number of propidium iodide (PI) positive cells [5]: increases
- mitochondrial localization by immunocytochemical staining (MitoTracker) [6]: targeted exclusively to mitochondria
